Data: US20160024487

Tests used:
[1] = target: T1, Lys(Dnp)-ATNATLFPRIVGG-Lys(Abz)
T1 chain: KATNATLFPRIVGGK

[2] = target: T2, Lys(Dnp)-ATNATLYPRIVGG-Lys(Abz)
T2 chain: KATNATLYPRIVGGK

[3] = target: T3, Lys(Dnp)-ATNATWPPRIVGG-Lys(Abz)
T3 chain: KATNATWPPRIVGGK

[4] = target: T4, Lys(Dnp)-ATNATAIPRIVGG-Lys(Abz)
T4 chain: KATNATAIPRIVGGK

[5] = target: T5, Lys(Dnp)-ATNATFMPRIVGG-Lys(Abz)
T5 chain: KATNATFMPRIVGGK

[6] = target: T6, Lys(Dnp)-ATNATYWPRIVGG-Lys(Abz)
T6 chain: KATNATYWPRIVGGK

[7] = target: T7, Lys(Dnp)-ATNATWQPRIVGG-Lys(Abz)
T7 chain: KATNATWQPRIVGGK

[8] = target: T8, Lys(Dnp)-ATNATWKPRIVGG-Lys(Abz)
T8 chain: KATNATWKPRIVGGK

[9] = target: T9, Lys(Dnp)-ATNATLHPRIVGG-Lys(Abz)
T9 chain: KATNATLHPRIVGGK

[10] = target: T10, Lys(Dnp)-ATNATIVPRIVGG-Lys(Abz)
T10 chain: KATNATIVPRIVGGK

[11] = target: T11, Lys(Dnp)-ATNATPQPRIVGG-Lys(Abz)
T11 chain: KATNATPQPRIVGGK

[12] = target: T12, Lys(Dnp)-ATNATIQPRIVGG-Lys(Abz)
T12 chain: KATNATIQPRIVGGK

[13] = target: T13, Lys(Dnp)-ATNATPSPRIVGG-Lys(Abz)
T13 chain: KATNATPSPRIVGGK

[14] = target: T14, Lys(Dnp)-ATNATHVPRIVGG-Lys(Abz)
T14 chain: KATNATHVPRIVGGK

[15] = target: T15, Lys(Dnp)-ATNATIAPRIVGG-Lys(Abz)
T15 chain: KATNATIAPRIVGGK

[16] = target: T16, Lys(Dnp)-ATNATVRPRIVGG-Lys(Abz)
T16 chain: KATNATVRPRIVGGK

[17] = target: T17, Lys(Dnp)-ATNATGTPRIVGG-Lys(Abz)
T17 chain: KATNATGTPRIVGGK

[18] = target: T18, Lys(Dnp)-ATNATKEPRIVGG-Lys(Abz)
T18 chain: KATNATKEPRIVGGK

[19] = target: T19, Lys(Dnp)-ATNATWLPRIVGG-Lys(Abz)
T19 chain: KATNATWLPRIVGGK

[20] = target: T20, Lys(Dnp)-ATNATPRPRIVGG-Lys(Abz)
T20 chain: KATNATPRPRIVGGK

[21] = target: T21, Lys(Dnp)-ATNATLGPRIVGG-Lys(Abz)
T21 chain: KATNATLGPRIVGGK

[22] = target: T22, Lys(Dnp)-ATNATQSPRIVGG-Lys(Abz)
T22 chain: KATNATQSPRIVGGK

[23] = target: T23, Lys(Dnp)-ATNATIDPRIVGG-Lys(Abz)
T23 chain: KATNATIDPRIVGGK

[24] = target: T24, Lys(Dnp)-ATNATWVPRIVGG-Lys(Abz)
T24 chain: KATNATWVPRIVGGK

[25] = target: T25, Lys(Dnp)-ATNATLDPRIVGG-Lys(Abz)
T25 chain: KATNATLDPRIVGGK

[26] = target: T26, Lys(Dnp)-ATNATPAPRIVGG-Lys(Abz)
T26 chain: KATNATPAPRIVGGK

[27] = target: T27, Lys(Dnp)-ATNATRHPRIVGG-Lys(Abz)
T27 chain: KATNATRHPRIVGGK

[28] = target: T28, Lys(Dnp)-ATNATEGPRIVGG-Lys(Abz)
T28 chain: KATNATEGPRIVGGK

[29] = target: T29, Lys(Dnp)-ATNATYPPRIVGG-Lys(Abz)
T29 chain: KATNATYPPRIVGGK

[30] = target: T30, Lys(Dnp)-ATNATMAPRIVGG-Lys(Abz)
T30 chain: KATNATMAPRIVGGK

[31] = target: T31, Lys(Dnp)-ATNATWDPRIVGG-Lys(Abz)
T31 chain: KATNATWDPRIVGGK

[32] = target: T32, Lys(Dnp)-ATNATRLPRIVGG-Lys(Abz)
T32 chain: KATNATRLPRIVGGK

[33] = target: T33, Lys(Dnp)-ATNATKHPRIVGG-Lys(Abz)
T33 chain: KATNATKHPRIVGGK

[34] = target: T34, Lys(Dnp)-ATNATYYPRIVGG-Lys(Abz)
T34 chain: KATNATYYPRIVGGK

[35] = target: T35, Lys(Dnp)-ATNATNRPRIVGG-Lys(Abz)
T35 chain: KATNATNRPRIVGGK

[36] = target: T36, Lys(Dnp)-ATNATIGPRIVGG-Lys(Abz)
T36 chain: KATNATIGPRIVGGK

[37] = target: T37, Lys(Dnp)-ATNATTWPRIVGG-Lys(Abz)
T37 chain: KATNATTWPRIVGGK

[38] = target: T38, Lys(Dnp)-ATNATERPRIVGG-Lys(Abz)
T38 chain: KATNATERPRIVGGK

[39] = target: T39, Lys(Dnp)-ATNATWMPRIVGG-Lys(Abz)
T39 chain: KATNATWMPRIVGGK

[40] = target: T40, Lys(Dnp)-ATNATMWPRIVGG-Lys(Abz)
T40 chain: KATNATMWPRIVGGK

[41] = target: T41, Lys(Dnp)-ATNATKRPRIVGG-Lys(Abz)
T41 chain: KATNATKRPRIVGGK

B1: Human plasma purified Factor Xa (protein)
chain 1: ANSFLEEMKKGHLERECMEETCSYEEAREVFEDSDKTNEFWNKYKDGDQCETSPCQNQGKCKDGLGEYTCTCLEGFEGKNCELFTRKLCSLDNGDCDQFCHEEQNSVVCSCARGYTLADNGKACIPTGPYPCGKQTLER
chain 2: IVGGQECKDGECPWQALLINEENEGFCGGTILSEFYILTAAHCLYQAKRFKVRVGDRNTEQEEGGEAVHEVEVVIKHNRFTKETYDFDIAVLRLKTPITFRMNVAPACLPERDWAESTLMTQKTGIVSGFGRTHEKGRQSTRLKMLEVPYVDRNSCKLSSSFIITQNMFCAGYDTKQEDACQGDSGGPHVTRFKDTYFVTGIVSWGEGCARKGKYGIYTKVTAFLKWIDRSMKTRGLPKAKSHAPEVITSSPLK
- FXa kcat/KM [1]: 99 M⁻¹ s⁻¹
- FXa kcat/KM [2]: 160 M⁻¹ s⁻¹
- FXa kcat/KM [3]: 17 M⁻¹ s⁻¹
- FXa kcat/KM [4]: 220 M⁻¹ s⁻¹
- FXa kcat/KM [5]: 840 M⁻¹ s⁻¹
- FXa kcat/KM [6]: 54 M⁻¹ s⁻¹
- FXa kcat/KM [7]: 37 M⁻¹ s⁻¹
- FXa kcat/KM [8]: 41 M⁻¹ s⁻¹
- FXa kcat/KM [9]: 540 M⁻¹ s⁻¹
- FXa kcat/KM [10]: 360 M⁻¹ s⁻¹
- FXa kcat/KM [11]: 1100 M⁻¹ s⁻¹
- FXa kcat/KM [12]: 1700 M⁻¹ s⁻¹

B2: Human plasma purified Factor Xa (Molecular Innovations, Inc) (protein)
chain 1: B1 chain 1
chain 2: B1 chain 2
- FXa kcat/KM [13]: 420 M⁻¹ s⁻¹
- FXa kcat/KM [14]: 39 M⁻¹ s⁻¹
- FXa kcat/KM [15]: 650 M⁻¹ s⁻¹
- FXa kcat/KM [16]: 430 M⁻¹ s⁻¹
- FXa kcat/KM [17]: 59 M⁻¹ s⁻¹
- FXa kcat/KM [18]: 62 M⁻¹ s⁻¹
- FXa kcat/KM [19]: 460 M⁻¹ s⁻¹
- FXa kcat/KM [20]: 500 M⁻¹ s⁻¹
- FXa kcat/KM [21]: 140 M⁻¹ s⁻¹
- FXa kcat/KM [22]: 950 M⁻¹ s⁻¹
- FXa kcat/KM [23]: 1300 M⁻¹ s⁻¹
- FXa kcat/KM [24]: 86 M⁻¹ s⁻¹
- FXa kcat/KM [25]: 1000 M⁻¹ s⁻¹
- FXa kcat/KM [26]: 170 M⁻¹ s⁻¹
- FXa kcat/KM [27]: 2600 M⁻¹ s⁻¹
- FXa kcat/KM [28]: 18 M⁻¹ s⁻¹
- FXa kcat/KM [29]: 20 M⁻¹ s⁻¹
- FXa kcat/KM [30]: 360 M⁻¹ s⁻¹
- FXa kcat/KM [31]: 16 M⁻¹ s⁻¹
- FXa kcat/KM [32]: 1400 M⁻¹ s⁻¹
- FXa kcat/KM [33]: 56 M⁻¹ s⁻¹
- FXa kcat/KM [34]: 48 M⁻¹ s⁻¹
- FXa kcat/KM [35]: 220 M⁻¹ s⁻¹
- FXa kcat/KM [36]: 170 M⁻¹ s⁻¹
- FXa kcat/KM [37]: 21 M⁻¹ s⁻¹
- FXa kcat/KM [38]: 300 M⁻¹ s⁻¹
- FXa kcat/KM [39]: 200 M⁻¹ s⁻¹
- FXa kcat/KM [40]: 630 M⁻¹ s⁻¹
- FXa kcat/KM [41]: 91 M⁻¹ s⁻¹
